This note sets out measurements from US20080085863A1 (WISCONSIN ALUMNI RESEARCH FOUNDATION, published 2008).

Assay [1] addresses T1, Flag-tagged recombinant bone morphogenetic protein-1 (BMP-1) (UniProt P13497-2 121-730, limits assumed).
T1 construct: Prepared as in Scott et al. 1999 (cited); In the Ki and complex-formation experiments it was metabolically labelled with 35S and purified on an anti-FLAG M2 column; also called 35S-radiolabeled BMP-1; recombinant BMP-1; not shown: Flag tag
T1 sequence (looked up): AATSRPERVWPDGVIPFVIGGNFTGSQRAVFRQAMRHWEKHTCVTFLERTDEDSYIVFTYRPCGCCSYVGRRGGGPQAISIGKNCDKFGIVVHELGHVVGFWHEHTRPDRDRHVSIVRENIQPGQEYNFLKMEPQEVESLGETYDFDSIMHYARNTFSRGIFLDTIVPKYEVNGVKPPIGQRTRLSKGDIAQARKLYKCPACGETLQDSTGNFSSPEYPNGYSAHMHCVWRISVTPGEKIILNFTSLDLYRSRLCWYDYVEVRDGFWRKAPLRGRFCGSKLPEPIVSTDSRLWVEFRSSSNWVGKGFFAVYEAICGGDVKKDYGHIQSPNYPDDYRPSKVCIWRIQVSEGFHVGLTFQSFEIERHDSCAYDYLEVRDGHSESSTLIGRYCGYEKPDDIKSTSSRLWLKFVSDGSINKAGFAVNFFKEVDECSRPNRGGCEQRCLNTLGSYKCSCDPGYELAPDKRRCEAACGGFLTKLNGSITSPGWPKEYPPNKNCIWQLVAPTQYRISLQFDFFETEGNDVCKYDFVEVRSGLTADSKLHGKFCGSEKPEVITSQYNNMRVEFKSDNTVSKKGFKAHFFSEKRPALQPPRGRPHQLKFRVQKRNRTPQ
As to the kind of experiment: time course of covalent complex formation of 40 nM 35S-BMP-1 with increasing α2M, SDS-PAGE densitometry (method of Enghild et al.). How it is done: 40 nM ³⁵S-labeled BMP-1 was incubated with 20, 40, 80, 160, and 240 nM plasma α₂M, or recombinant wild type α₂M or with 5, 10, 20, 40, and 80 nM b-α₂M at 37° C. in 50 mM Tris-HCl, pH 7.5, 100 mM NaCl and 10 mM CaCl₂. Reactions were stopped at 10, 30, 60, 90 and 120 minutes (plasma α₂M and recombinant wild type α₂M), or at 2, 5, 10, 20 and 30 minutes (b-α₂M) by adding. SDS-PAGE sample buffer and boiling 5 minutes at 95° C. Protein samples were separated on 7.5% acrylamide SDS-PAGE gels, which were then treated with EN³HANCE (DuPont) and exposed to film. Percentages of BMP-1 incorporated into high molecular weight complexes were determined by densitometry and kinetic parameters were determined essentially via the method of Enghild J, et al, “Interaction of human rheumatoid synovial collagenase (matrix metalloproteinase 1) and stromelysin (matrix metalloproteinase 3) with human alpha 2-macroglobulin and chicken ovostatin. Binding kinetics and identification of matrix metalloproteinase cleavage sites,” J. Biol. Chem. 264:8779-8785 (1989).
To obtain a quantitative comparison of the rates of interaction of BMP-1 with the various wild type and mutant forms of α₂M, we employed the methodology of Enghild et al., supra, which involves quantification of covalent proteinase-α₂M complex formation, subsequent to incubation of radiolabeled proteinase with α₂M.

The target of assay [2] is T1, Flag-tagged recombinant bone …. As to the kind of experiment: cell-based or functional assay.

B1: human α2-macroglobulin from plasma (Sigma-Aldrich) (other)
chain: SVSGKPQYMVLVPSLLHTETTEKGCVLLSYLNETVTVSASLESVRGNRSLFTDLEAENDVLHCVAFAVPKSSSNEEVMFLTVQVKGPTQEFKKRTTVMVKNEDSLVFVQTDKSIYKPGQTVKFRVVSMDENFHPLNELIPLVYIQDPKGNRIAQWQSFQLEGGLKQFSFPLSSEPFQGSYKVVVQKKSGGRTEHPFTVEEFVLPKFEVQVTVPKIITILEEEMNVSVCGLYTYGKPVPGHVTVSICRKYSDASDCHGEDSQAFCEKFSGQLNSHGCFYQQVKTKVFQLKRKEYEMKLHTEAQIQEEGTVVELTGRQSSEITRTITKLSFVKVDSHFRQGIPFFGQVRLVDGKGVPIPNKVIFIRGNEANYYSNATTDEHGLVQFSINTTNVMGTSLTVRVNYKDRSPCYGYQWVSEEHEEAHHTAYLVFSPSKSFVHLEPMSHELPCGHTQTVQAHYILNGGTLLGLKKLSFYYLIMAKGGIVRTGTHGLLVKQEDMKGHFSISIPVKSDIAPVARLLIYAVLPTGDVIGDSAKYDVENCLANKVDLSFSPSQSLPASHAHLRVTAAPQSVCALRAVDQSVLLMKPDAELSASSVYNLLPEKDLTGFPGPLNDQDDEDCINRHNVYINGITYTPVSSTNEKDMYSFLEDMGLKAFTNSKIRKPKMCPQLQQYEMHGPEGLRVGFYESDVMGRGHARLVHVEEPHTETVRKYFPETWIWDLVVVNSAGVAEVGVTVPDTITEWKAGAFCLSEDAGLGISSTASLRAFQPFFVELTMPYSVIRGEAFTLKATVLNYLPKCIRVSVQLEASPAFLAVPVEKEQAPHCICANGRQTVSWAVTPKSLGNVNFTVSAEALESQELCGTEVPSVPEHGRKDTVIKPLLVEPEGLEKETTFNSLLCPSGGEVSEELSLKLPPNVVEESARASVSVLGDILGSAMQNTQNLLQMPYGCGEQNMVLFAPNIYVLDYLNETQQLTPEIKSKAIGYLNTGYQRQLNYKHYDGSYSTFGERYGRNQGNTWLTAFVLKTFAQARAYIFIDEAHITQALIWLSQRQKDNGCFRSSGSLLNNAIKGGVEDEVTLSAYITIALLEIPLTVTHPVVRNALFCLESAWKTAQEGDHGSHVYTKALLAYAFALAGNQDKRKEVLKSLNEEAVKKDNSVHWERPQKPKAPVGHFYEPQAPSAEVEMTSYVLLAYLTAQPAPTSEDLTSATNIVKWITKQQNAQGGFSSTQDTVVALHALSKYGAATFTRTGKAAQVTIQSSGTFSSKFQVDNNNRLLLQQVSLPELPGEYSMKVTGEGCVYLQTSLKYNILPEKEEFPFALGVQTLPQTCDEPKAHTSFQISLSVSYTGSRSASNMAIVDVKMVSGFIPLKPTVKMLERSNHVSRTEVSSNHVLIYLDKVSNQTLSLFFTVLQDVPVRDLKPAIVKVYDYYETDEFAIAEYNAPCSKDLGNA
notes: Bought plasma protein; also called plasma α2M; serum α2M
With B1, the Ki in assay [1] turned out to be 25.2 nM. For the same molecule, the “inhibition of BMP-1 pCP activity (cleavage of 3H-radiolabeled type I procollagen), IC50” value in assay [2] came to 4.8 nM.

B2: recombinant wild type α2-macroglobulin (FLAG-tagged) (other, not shown: small tags and cut ends)
chain: B1 chain
notes: Expressed in 293 T-REx cells with the native signal peptide replaced by the BM40 signal peptide; also called rα2M; recombinant α2M
As for B2, the Ki in assay [1] was determined as 39.5 nM. Further, the “pCP inhibitory activity, IC50” value in assay [2] was 133 nM.
